Results on 10 molecules are retold here after patent publication US20240254193A1.

Sequences and labels used below:
B1: super-TRAIL AX-1622, P50591 114-281 (ligand)
chain: VRERGPQRVAAHITGTRGRSNTLSSPNSKNEKALGRKINSWESSRSGHSFLSNLHLRNGELVIHEKGFYYIYSQTYFRFQEEIKENTKNDKQMVQYIYKYTSYPDPILLMKSARNSCWSKDAEYGLYSIYQGGIFELKENDRIFVSVTNEHLIDMDHEASFFGAFLVGGGGSGGGVAAHITGTRGRSNTLSSPNSKNEKALGRKINSWESSRSGHSFLSNLHLRNGELVIHEKGFYYIYSQTYFRFQEEIKENTKNDKQMVQYIYKYTSYPDPILLMKSARNSCWSKDAEYGLYSIYQGGIFELKENDRIFVSVTNEHLIDMDHEASFFGAFLVG
B2: super-TRAIL AX-1618, P50591 114-281 (ligand)
chain: VRERGPQRVAAHITGTRGRSNTLSSPNSKNEKALGRKINSWESSRSGHSFLSNLHLRNGELVIHEKGFYYIYSQTYFRFQEEIKENTKNDKQMVQYIYKYTSYPDPILLMKSARNSCWSKDAEYGLYSIYQGGIFELKENDRIFVSVTNEHLIDMDHEASFFGAFLVGGGGSGGGGSGGVAAHITGTRGRSNTLSSPNSKNEKALGRKINSWESSRSGHSFLSNLHLRNGELVIHEKGFYYIYSQTYFRFQEEIKENTKNDKQMVQYIYKYTSYPDPILLMKSARNSCWSKDAEYGLYSIYQGGIFELKENDRIFVSVTNEHLIDMDHEASFFGAFLVG
B3: super-TRAIL AX-1632, P50591 114-281 (ligand)
chain: VRERGPQRVAAHITGTRGRSNTLSSPNSKNEKALGRKINSWESSRSGHSFLSNLHLRNGELVIHEKGFYYIYSQTYFRFQEEIKENTKNDKQMVQYIYKYTSYPDPILLMKSARNSCWSKDAEYGLYSIYQGGIFELKENDRIFVSVTNEHLIDMDHEASFFGAFLVGGGGGGGGGGVAAHITGTRGRSNTLSSPNSKNEKALGRKINSWESSRSGHSFLSNLHLRNGELVIHEKGFYYIYSQTYFRFQEEIKENTKNDKQMVQYIYKYTSYPDPILLMKSARNSCWSKDAEYGLYSIYQGGIFELKENDRIFVSVTNEHLIDMDHEASFFGAFLVG
B4: super-TRAIL AX-1611, P50591 114-281 (ligand)
chain: VRERGPQRVAAHITGTRGRSNTLSSPNSKNEKALGRKINSWESSRSGHSFLSNLHLRNGELVIHEKGFYYIYSQTYFRFQEEIKENTKNDKQMVQYIYKYTSYPDPILLMKSARNSCWSKDAEYGLYSIYQGGIFELKENDRIFVSVTNEHLIDMDHEASFFGAFLVGGGGGGVAAHITGTRGRSNTLSSPNSKNEKALGRKINSWESSRSGHSFLSNLHLRNGELVIHEKGFYYIYSQTYFRFQEEIKENTKNDKQMVQYIYKYTSYPDPILLMKSARNSCWSKDAEYGLYSIYQGGIFELKENDRIFVSVTNEHLIDMDHEASFFGAFLVG
B5: super-TRAIL AX-1606, P50591 120-281 (ligand)
chain: QRVAAHITGTRGRSNTLSSPNSKNEKALGRKINSWESSRSGHSFLSNLHLRNGELVIHEKGFYYIYSQTYFRFQEEIKENTKNDKQMVQYIYKYTSYPDPILLMKSARNSCWSKDAEYGLYSIYQGGIFELKENDRIFVSVTNEHLIDMDHEASFFGAFLVGGGGSGGGGSGGQRVAAHITGTRGRSNTLSSPNSKNEKALGRKINSWESSRSGHSFLSNLHLRNGELVIHEKGFYYIYSQTYFRFQEEIKENTKNDKQMVQYIYKYTSYPDPILLMKSARNSCWSKDAEYGLYSIYQGGIFELKENDRIFVSVTNEHLIDMDHEASFFGAFLVG
B6: super-TRAIL AX-1621, P50591 114-281 (ligand)
chain: VRERGPQRVAAHITGTRGRSNTLSSPNSKNEKALGRKINSWESSRSGHSFLSNLHLRNGELVIHEKGFYYIYSQTYFRFQEEIKENTKNDKQMVQYIYKYTSYPDPILLMKSARNSCWSKDAEYGLYSIYQGGIFELKENDRIFVSVTNEHLIDMDHEASFFGAFLVGGGGSGGVAAHITGTRGRSNTLSSPNSKNEKALGRKINSWESSRSGHSFLSNLHLRNGELVIHEKGFYYIYSQTYFRFQEEIKENTKNDKQMVQYIYKYTSYPDPILLMKSARNSCWSKDAEYGLYSIYQGGIFELKENDRIFVSVTNEHLIDMDHEASFFGAFLVG
B7: super-TRAIL AX-1631, P50591 114-281 (ligand)
chain: VRERGPQRVAAHITGTRGRSNTLSSPNSKNEKALGRKINSWESSRSGHSFLSNLHLRNGELVIHEKGFYYIYSQTYFRFQEEIKENTKNDKQMVQYIYKYTSYPDPILLMKSARNSCWSKDAEYGLYSIYQGGIFELKENDRIFVSVTNEHLIDMDHEASFFGAFLVGGGGGGGVAAHITGTRGRSNTLSSPNSKNEKALGRKINSWESSRSGHSFLSNLHLRNGELVIHEKGFYYIYSQTYFRFQEEIKENTKNDKQMVQYIYKYTSYPDPILLMKSARNSCWSKDAEYGLYSIYQGGIFELKENDRIFVSVTNEHLIDMDHEASFFGAFLVG
B8: super-TRAIL AX-1623, P50591 114-281 (ligand)
chain: VRERGPQRVAAHITGTRGRSNTLSSPNSKNEKALGRKINSWESSRSGHSFLSNLHLRNGELVIHEKGFYYIYSQTYFRFQEEIKENTKNDKQMVQYIYKYTSYPDPILLMKSARNSCWSKDAEYGLYSIYQGGIFELKENDRIFVSVTNEHLIDMDHEASFFGAFLVGGGGSGGGGVAAHITGTRGRSNTLSSPNSKNEKALGRKINSWESSRSGHSFLSNLHLRNGELVIHEKGFYYIYSQTYFRFQEEIKENTKNDKQMVQYIYKYTSYPDPILLMKSARNSCWSKDAEYGLYSIYQGGIFELKENDRIFVSVTNEHLIDMDHEASFFGAFLVG
B9: super-TRAIL AX-1630, P50591 114-281 (ligand)
chain: VRERGPQRVAAHITGTRGRSNTLSSPNSKNEKALGRKINSWESSRSGHSFLSNLHLRNGELVIHEKGFYYIYSQTYFRFQEEIKENTKNDKQMVQYIYKYTSYPDPILLMKSARNSCWSKDAEYGLYSIYQGGIFELKENDRIFVSVTNEHLIDMDHEASFFGAFLVGGGGGGGGGVAAHITGTRGRSNTLSSPNSKNEKALGRKINSWESSRSGHSFLSNLHLRNGELVIHEKGFYYIYSQTYFRFQEEIKENTKNDKQMVQYIYKYTSYPDPILLMKSARNSCWSKDAEYGLYSIYQGGIFELKENDRIFVSVTNEHLIDMDHEASFFGAFLVG
B10: super-TRAIL AX-1620, P50591 114-281 (ligand)
chain: VRERGPQRVAAHITGTRGRSNTLSSPNSKNEKALGRKINSWESSRSGHSFLSNLHLRNGELVIHEKGFYYIYSQTYFRFQEEIKENTKNDKQMVQYIYKYTSYPDPILLMKSARNSCWSKDAEYGLYSIYQGGIFELKENDRIFVSVTNEHLIDMDHEASFFGAFLVGGGGSGGGGSGGGSGGVAAHITGTRGRSNTLSSPNSKNEKALGRKINSWESSRSGHSFLSNLHLRNGELVIHEKGFYYIYSQTYFRFQEEIKENTKNDKQMVQYIYKYTSYPDPILLMKSARNSCWSKDAEYGLYSIYQGGIFELKENDRIFVSVTNEHLIDMDHEASFFGAFLVG

For the assay, the target named is TRAIL receptors. As to the kind of experiment: cell-based or functional assay.
As for B1, the EC50 measured by use of L929 cells worked out at 5.3 ng/mL.

The molecule B2 came in with an EC50 measured by use of L929 cells of 1.5 ng/mL.

Molecule B3 showed an EC50 measured by use of L929 cells of 1.1 ng/mL.

Consider B4, for which the EC50, viability of H460 cells by MTS assay came to 54.7 ng/mL; the EC50, viability of RPMI-8226 cells by MTS assay turned out to be 15.4 ng/mL; the EC50 measured by use of L929 cells turned out to be 0.85 ng/mL; the fold enhanced activity to induce apoptosis in L929 cells compared with wild type TRAIL turned out to be 30 fold.

B5 came in with an EC50 measured by use of L929 cells of 1.05 ng/mL.

Take B6: the EC50 measured by use of L929 cells amounted to 0.95 ng/mL.

Turning to B7, the EC50 measured by use of L929 cells was 1.2 ng/mL.

Molecule B8 registered an EC50 measured by use of L929 cells of 0.88 ng/mL.

Regarding B9, the EC50 measured by use of L929 cells worked out at 0.78 ng/mL.

For the molecule B10, the EC50 measured by use of L929 cells came to 2.1 ng/mL.
